Drawing on patent publication US20140342369A1, this text covers peptides control and peptides sample for 1 substance.

In assay [1] the target is Calnexin (Canx1) (mouse) (UniProt P35564). Kind of assay: control pulldown (background; control not described), mass spectrometry of eluted proteins.
Assay [2] deals with Dolichyl-diphosphooligosaccharide--protein glycosyltransferase SU 1 (Rpn1) (mouse) (UniProt Q91YQ5). The assay is described as above.
Assay [3] deals with Guanine nucleotide-binding protein G(i) subunit alpha-2 (Gnai2) (mouse) (UniProt P08752). The description is as above.
Assay [4] addresses LYRIC (Mtdh, Metadherin) (mouse) (UniProt Q80WJ7). Described as above.
Assay [5] addresses Neurabin-1 (Ppp1r9a) (mouse) (UniProt Q7TN74). The description is as above.
In assay [6] the target is Neurabin-2, Spinophilin (Ppp1r9b) (mouse) (UniProt Q6R891). Described as above.
Assay [7] has as its target Solute carrier family 2, facilitated glucose transporter member 3 (Slc2a3) (mouse) (UniProt P32037). Described as above.
Assay [8] addresses Calnexin (Canx1) (mouse) (UniProt P35564). Kind of assay: anti-HA pulldown of tagged Gpr107 from whole cell lysate, mass spectrometry of eluted proteins.
The target of assay [9] is Dolichyl-diphosphooligosaccharide--protein glycosyltransferase SU 1 (Rpn1) (mouse) (UniProt Q91YQ5). The assay is described as above.
For assay [10], the target named is Guanine nucleotide-binding protein G(i) subunit alpha-2 (Gnai2) (mouse) (UniProt P08752). Described as above.
Assay [11] concerns the target LYRIC (Mtdh, Metadherin) (mouse) (UniProt Q80WJ7). Described as above.
For assay [12], the target named is Neurabin-1 (Ppp1r9a) (mouse) (UniProt Q7TN74). Described as above.
Assay [13] deals with Neurabin-2, Spinophilin (Ppp1r9b) (mouse) (UniProt Q6R891). The description is as above.
The target of assay [14] is Solute carrier family 2, facilitated glucose transporter member 3 (Slc2a3) (mouse) (UniProt P32037). The description is as above.

UniProt P08752, sequence (P08752 2-355 limits assumed): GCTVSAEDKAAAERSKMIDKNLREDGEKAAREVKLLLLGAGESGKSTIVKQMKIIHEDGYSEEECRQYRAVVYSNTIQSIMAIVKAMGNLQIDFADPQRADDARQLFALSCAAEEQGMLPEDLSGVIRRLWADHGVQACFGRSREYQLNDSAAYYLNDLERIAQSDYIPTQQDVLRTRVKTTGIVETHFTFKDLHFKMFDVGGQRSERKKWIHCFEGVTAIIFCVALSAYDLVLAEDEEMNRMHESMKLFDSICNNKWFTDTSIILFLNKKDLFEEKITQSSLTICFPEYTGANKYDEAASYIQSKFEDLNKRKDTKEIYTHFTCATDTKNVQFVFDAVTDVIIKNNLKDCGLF
UniProt Q80WJ7, sequence (Q80WJ7 whole entry): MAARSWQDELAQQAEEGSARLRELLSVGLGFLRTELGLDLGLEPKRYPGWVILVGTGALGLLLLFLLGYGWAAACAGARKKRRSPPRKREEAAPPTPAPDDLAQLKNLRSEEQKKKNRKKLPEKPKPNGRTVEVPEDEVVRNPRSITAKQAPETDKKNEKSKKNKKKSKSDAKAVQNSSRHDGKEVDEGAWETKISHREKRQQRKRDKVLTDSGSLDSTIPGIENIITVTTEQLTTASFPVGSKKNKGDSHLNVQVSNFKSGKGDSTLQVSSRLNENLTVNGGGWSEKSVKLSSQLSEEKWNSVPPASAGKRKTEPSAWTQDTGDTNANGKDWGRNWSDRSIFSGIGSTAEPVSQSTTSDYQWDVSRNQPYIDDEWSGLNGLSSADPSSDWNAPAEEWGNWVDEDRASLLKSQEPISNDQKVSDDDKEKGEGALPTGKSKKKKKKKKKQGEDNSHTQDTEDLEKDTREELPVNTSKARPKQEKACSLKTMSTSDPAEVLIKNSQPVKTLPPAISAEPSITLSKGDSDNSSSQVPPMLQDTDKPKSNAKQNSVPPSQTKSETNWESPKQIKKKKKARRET
UniProt Q7TN74, sequence (Q7TN74 entry or part of it): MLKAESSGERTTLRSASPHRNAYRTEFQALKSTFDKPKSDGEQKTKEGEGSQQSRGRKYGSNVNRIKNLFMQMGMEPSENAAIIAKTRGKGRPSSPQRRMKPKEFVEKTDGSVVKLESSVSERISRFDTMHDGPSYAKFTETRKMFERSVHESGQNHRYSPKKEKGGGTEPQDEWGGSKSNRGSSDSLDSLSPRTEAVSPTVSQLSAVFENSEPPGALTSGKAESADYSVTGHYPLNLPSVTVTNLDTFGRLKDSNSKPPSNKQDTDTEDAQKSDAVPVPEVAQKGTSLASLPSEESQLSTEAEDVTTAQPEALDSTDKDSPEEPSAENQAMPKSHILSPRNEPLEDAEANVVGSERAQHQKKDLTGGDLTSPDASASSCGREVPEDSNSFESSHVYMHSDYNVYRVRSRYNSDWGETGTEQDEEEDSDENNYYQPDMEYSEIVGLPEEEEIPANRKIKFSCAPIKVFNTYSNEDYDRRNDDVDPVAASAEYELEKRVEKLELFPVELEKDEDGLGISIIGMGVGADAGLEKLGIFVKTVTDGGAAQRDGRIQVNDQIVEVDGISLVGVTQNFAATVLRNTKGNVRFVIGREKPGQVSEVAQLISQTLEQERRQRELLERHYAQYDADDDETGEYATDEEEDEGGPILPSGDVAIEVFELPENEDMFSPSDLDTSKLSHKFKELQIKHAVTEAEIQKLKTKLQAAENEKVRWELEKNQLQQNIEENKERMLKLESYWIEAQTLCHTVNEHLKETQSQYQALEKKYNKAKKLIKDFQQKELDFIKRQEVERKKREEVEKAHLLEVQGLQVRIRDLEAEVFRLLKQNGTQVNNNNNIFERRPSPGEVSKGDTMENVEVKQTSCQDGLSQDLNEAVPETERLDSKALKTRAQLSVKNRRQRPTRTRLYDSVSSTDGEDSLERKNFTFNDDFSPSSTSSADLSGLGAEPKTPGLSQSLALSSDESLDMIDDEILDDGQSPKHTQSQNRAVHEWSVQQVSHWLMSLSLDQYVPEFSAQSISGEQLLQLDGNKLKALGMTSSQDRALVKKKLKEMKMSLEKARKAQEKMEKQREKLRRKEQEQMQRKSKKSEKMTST
UniProt P32037, sequence (P32037 whole entry): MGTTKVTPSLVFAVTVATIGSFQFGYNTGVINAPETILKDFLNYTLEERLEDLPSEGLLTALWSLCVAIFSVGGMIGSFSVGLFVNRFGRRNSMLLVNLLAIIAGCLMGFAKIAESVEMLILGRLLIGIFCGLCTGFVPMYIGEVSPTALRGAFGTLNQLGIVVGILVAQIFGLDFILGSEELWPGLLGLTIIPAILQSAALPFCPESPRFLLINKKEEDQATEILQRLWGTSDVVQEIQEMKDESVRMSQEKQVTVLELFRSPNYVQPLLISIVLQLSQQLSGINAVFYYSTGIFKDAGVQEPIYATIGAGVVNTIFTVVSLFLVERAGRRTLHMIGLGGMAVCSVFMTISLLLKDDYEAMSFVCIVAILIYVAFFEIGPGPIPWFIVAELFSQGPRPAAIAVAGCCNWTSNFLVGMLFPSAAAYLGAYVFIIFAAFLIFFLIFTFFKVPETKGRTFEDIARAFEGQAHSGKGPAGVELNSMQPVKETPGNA
UniProt Q6R891, sequence (Q6R891 whole entry): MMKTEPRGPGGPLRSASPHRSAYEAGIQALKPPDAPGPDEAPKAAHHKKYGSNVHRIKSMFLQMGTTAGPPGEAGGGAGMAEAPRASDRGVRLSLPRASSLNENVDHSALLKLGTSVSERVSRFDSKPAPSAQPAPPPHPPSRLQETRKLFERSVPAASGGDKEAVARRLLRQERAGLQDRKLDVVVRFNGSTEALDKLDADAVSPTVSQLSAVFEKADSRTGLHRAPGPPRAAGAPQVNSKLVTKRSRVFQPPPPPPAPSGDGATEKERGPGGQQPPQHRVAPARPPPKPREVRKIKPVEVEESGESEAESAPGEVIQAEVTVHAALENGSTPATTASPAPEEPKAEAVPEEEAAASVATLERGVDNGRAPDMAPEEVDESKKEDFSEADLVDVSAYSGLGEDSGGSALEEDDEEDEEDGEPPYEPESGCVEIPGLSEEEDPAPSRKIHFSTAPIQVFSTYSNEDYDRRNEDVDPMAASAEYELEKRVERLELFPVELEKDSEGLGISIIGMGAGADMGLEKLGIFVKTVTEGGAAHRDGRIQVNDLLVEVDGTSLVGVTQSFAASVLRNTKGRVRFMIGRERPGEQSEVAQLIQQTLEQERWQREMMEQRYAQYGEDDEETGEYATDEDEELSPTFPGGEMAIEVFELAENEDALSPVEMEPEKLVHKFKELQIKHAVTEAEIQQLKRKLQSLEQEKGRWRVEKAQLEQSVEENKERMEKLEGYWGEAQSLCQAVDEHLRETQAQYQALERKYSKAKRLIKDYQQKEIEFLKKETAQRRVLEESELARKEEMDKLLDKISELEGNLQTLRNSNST
UniProt P35564, sequence (P35564 21-591 limits assumed): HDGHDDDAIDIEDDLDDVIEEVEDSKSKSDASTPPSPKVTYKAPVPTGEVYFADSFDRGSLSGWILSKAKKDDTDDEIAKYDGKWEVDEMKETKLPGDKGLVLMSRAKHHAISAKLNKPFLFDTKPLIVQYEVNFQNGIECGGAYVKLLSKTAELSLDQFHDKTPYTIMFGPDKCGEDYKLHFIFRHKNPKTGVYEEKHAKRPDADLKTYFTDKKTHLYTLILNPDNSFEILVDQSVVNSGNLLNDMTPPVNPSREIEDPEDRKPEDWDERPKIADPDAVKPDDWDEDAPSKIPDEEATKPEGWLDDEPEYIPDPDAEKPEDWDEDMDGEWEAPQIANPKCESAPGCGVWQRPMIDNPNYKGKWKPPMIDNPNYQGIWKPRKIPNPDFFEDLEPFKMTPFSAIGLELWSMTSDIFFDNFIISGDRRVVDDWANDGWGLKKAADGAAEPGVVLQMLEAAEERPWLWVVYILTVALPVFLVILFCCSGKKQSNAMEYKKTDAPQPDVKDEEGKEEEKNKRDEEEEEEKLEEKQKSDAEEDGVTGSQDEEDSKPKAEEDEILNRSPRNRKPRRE
UniProt Q91YQ5, sequence (Q91YQ5 26-608 limits assumed): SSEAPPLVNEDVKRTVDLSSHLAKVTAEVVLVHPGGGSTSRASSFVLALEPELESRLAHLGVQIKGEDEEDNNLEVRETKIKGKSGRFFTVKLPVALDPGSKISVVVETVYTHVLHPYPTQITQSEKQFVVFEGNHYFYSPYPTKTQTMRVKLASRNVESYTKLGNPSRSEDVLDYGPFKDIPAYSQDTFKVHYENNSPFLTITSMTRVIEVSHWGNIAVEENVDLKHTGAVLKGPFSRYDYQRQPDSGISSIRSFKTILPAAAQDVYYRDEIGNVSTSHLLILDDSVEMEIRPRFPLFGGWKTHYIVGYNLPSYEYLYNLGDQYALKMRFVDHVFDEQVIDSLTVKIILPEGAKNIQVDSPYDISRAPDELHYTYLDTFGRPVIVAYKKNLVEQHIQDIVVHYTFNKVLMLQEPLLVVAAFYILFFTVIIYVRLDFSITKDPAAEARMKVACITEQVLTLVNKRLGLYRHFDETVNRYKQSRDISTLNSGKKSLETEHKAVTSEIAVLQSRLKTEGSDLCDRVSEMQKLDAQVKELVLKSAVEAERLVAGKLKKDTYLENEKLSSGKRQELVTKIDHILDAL

Take “C-terminally tagged (mCherry, Ha, myc) version of Gpr107 (G protein coupled receptor 107) (from UniProt Q8BUV8 34-551)”: the peptides control in the assay with Calnexin (Canx1) (mouse) [1] was 3 peptides; in assay [2], 3 peptides; in assay [3], 0 peptides; in assay [4] it was 0 peptides; in assay [5], 0 peptides; in assay [6], 8 peptides. Further, in [7], the peptides control stood at 0 peptides. The peptides sample with Calnexin (Canx1) (mouse) [8] is 7 peptides; in [9], 8 peptides; in [10], 19 peptides; in [11], 46 peptides; in [12] it was 13 peptides; in assay [13] it was 136 peptides. This substance came in with a peptides sample in assay [14] of 5 peptides.
